Publication PMC9352680, “A comprehensive thermodynamic model for RNA binding by the Saccharomyces cerevisiae Pumilio protein PUF4”

Target: T1, PUF4 RNA-binding domain (Saccharomyces cerevisiae, UniProt P25339 537-888)
T1 sequence: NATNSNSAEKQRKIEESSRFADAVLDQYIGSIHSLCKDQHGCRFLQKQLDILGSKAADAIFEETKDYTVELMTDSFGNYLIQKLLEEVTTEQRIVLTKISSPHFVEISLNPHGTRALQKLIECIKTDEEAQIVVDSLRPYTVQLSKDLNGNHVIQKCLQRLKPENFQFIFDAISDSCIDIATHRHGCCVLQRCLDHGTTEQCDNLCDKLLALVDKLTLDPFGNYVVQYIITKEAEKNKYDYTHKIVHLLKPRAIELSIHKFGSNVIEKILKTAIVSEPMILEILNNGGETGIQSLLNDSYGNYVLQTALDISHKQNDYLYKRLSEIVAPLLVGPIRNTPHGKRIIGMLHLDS
Assay: Mg; RNA-MaP; 20 mM Na-HEPES pH 7.4, 30 mM KOAc, 0.75 mM MgCl2, 0.1% Tween-20, 5% glycerol, 0.1 mg/mL BSA, 2 mM DTT; 25 C; 0.0125-409.6 nM protein
Conditions: tags: N-His6-TEV cleaved; C-SNAP kept, Cy3B-labelled; label: tethered on chip by stalled RNA polymerase

B1: Ic_S4_P5E.1_K5.1_C5.1_H5.1_A5.1_[T5G]_[T6C]_[A7T]_F5.1_[A10T]_T5.1 (ssRNA)
RNA: UUUGACAACUGAUCGUUCUUUCUUGUAGCUUUUUUCUUUCUCGAUCAGUUGUCUUU
- Kd: 34.7 nM

B2: Ic_S4_P5E.1_K5.1_C5.1_H5.1_A5.1_[T5C]_[A7C]_F5.1_[T9C]_[A10G]_T5.1 (ssRNA)
RNA: UUUGACAACUGAUCGUUCUUUCUUGUACUCUCGUUCUUUCUCGAUCAGUUGUCUUU
- Kd: 120 nM

B3: Ic_S4_P5E.1_K5.1_C5.1_H5.1_A5.1_[T5A]_[T6C]_[A7T]_F5.1_[T8C]_[T9A]_T5.1 (ssRNA)
RNA: UUUGACAACUGAUCGUUCUUUCUUGUAACUCAAUUCUUUCUCGAUCAGUUGUCUUU
- Kd: 857 nM

B4: Ic_S4_P5E.1_K5.1_C5.1_H5.1_A5.1_[T5A]_[T6A]_[A7C]_F5.1_[T9G]_[A10G]_T5.1 (ssRNA)
RNA: UUUGACAACUGAUCGUUCUUUCUUGUAAACUGGUUCUUUCUCGAUCAGUUGUCUUU
- Kd: 280 nM

B5: Ic_S4_P5E.1_K5.1_C5.1_H5.1_A5.1_[T5C]_[T6A]_[A7C]_F5.1_[T9G]_[A10G]_T5.1 (ssRNA)
RNA: UUUGACAACUGAUCGUUCUUUCUUGUACACUGGUUCUUUCUCGAUCAGUUGUCUUU
- Kd: 14.9 nM

B6: Ic_S4_P5E.1_K5.1_C5.1_H5.1_A5.1_[T6C]_[A7C]_F5.1_[T8C]_[T9C]_[A10G]_T5.1 (ssRNA)
RNA: UUUGACAACUGAUCGUUCUUUCUUGUAUCCCCGUUCUUUCUCGAUCAGUUGUCUUU
- Kd: 674 nM

B7: Ic_S4_P5E.1_K5.1_C5.1_H5.1_A5.1_[T5C]_[T6A]_[A7T]_F5.1_[T8G]_[A10G]_T5.1 (ssRNA)
RNA: UUUGACAACUGAUCGUUCUUUCUUGUACAUGUGUUCUUUCUCGAUCAGUUGUCUUU
- Kd: 24 nM

B8: Ic_S4_P5E.1_K5.1_C5.1_H5.1_A5.1_[T5A]_F5.1_[A10G]_T5.1 (ssRNA)
RNA: UUUGACAACUGAUCGUUCUUUCUUGUAAUAUUGUUCUUUCUCGAUCAGUUGUCUUU
- Kd: 24.3 nM

B9: Ic_S4_P5E.1_K5.1_C5.1_H5.1_A5.1_[T5C]_[T6G]_[A7T]_F5.1_[T8G]_[T9C]_[A10C]_T5.1 (ssRNA)
RNA: UUUGACAACUGAUCGUUCUUUCUUGUACGUGCCUUCUUUCUCGAUCAGUUGUCUUU
- Kd: 125 nM

B10: Ic_S4_P5E.1_K5.1_C5.1_H5.1_A5.1_[T5A]_[T6C]_[A7C]_F5.1_[T9A]_[A10T]_T5.1 (ssRNA)
RNA: UUUGACAACUGAUCGUUCUUUCUUGUAACCUAUUUCUUUCUCGAUCAGUUGUCUUU
- Kd: 5.91 nM

B11: Ic_S4_P5E.1_K5.1_C5.1_H5.1_A5.1_[T5C]_[T6C]_[A7T]_F5.1_[T8C]_[T9C]_T5.1 (ssRNA)
RNA: UUUGACAACUGAUCGUUCUUUCUUGUACCUCCAUUCUUUCUCGAUCAGUUGUCUUU
- Kd: 198 nM

B12: Ic_S4_P5E.1_K5.1_C5.1_H5.1_A5.1_[T5A]_[T6C]_[A7T]_F5.1_[T8A]_[T9G]_[A10T]_T5.1 (ssRNA)
RNA: UUUGACAACUGAUCGUUCUUUCUUGUAACUAGUUUCUUUCUCGAUCAGUUGUCUUU
- Kd: 586 nM

B13: Ic_S4_P5E.1_K5.1_C5.1_H5.1_A5.1_[T6A]_[A7T]_F5.1_[T8C]_[T9G]_[A10C]_T5.1 (ssRNA)
RNA: UUUGACAACUGAUCGUUCUUUCUUGUAUAUCGCUUCUUUCUCGAUCAGUUGUCUUU
- Kd: 21.8 nM

B14: Ic_S4_P5E.1_K5.1_C5.1_H5.1_A5.1_[T5C]_F5.1_[T9A]_[A10C]_T5.1 (ssRNA)
RNA: UUUGACAACUGAUCGUUCUUUCUUGUACUAUACUUCUUUCUCGAUCAGUUGUCUUU
- Kd: 3.28 nM

B15: Ic_S4_P5E.1_K5.1_C5.1_H5.1_A5.1_[T6C]_F5.1_[T8A]_[T9A]_[A10C]_T5.1 (ssRNA)
RNA: UUUGACAACUGAUCGUUCUUUCUUGUAUCAAACUUCUUUCUCGAUCAGUUGUCUUU
- Kd: 156 nM

B16: Ic_S4_P5E.1_K5.1_C5.1_H5.1_A5.1_[T5A]_[T6C]_F5.1_[T9G]_[A10C]_T5.1 (ssRNA)
RNA: UUUGACAACUGAUCGUUCUUUCUUGUAACAUGCUUCUUUCUCGAUCAGUUGUCUUU
- Kd: 25.7 nM

B17: Ic_S4_P5E.1_K5.1_C5.1_H5.1_A5.1_[T6A]_[A7G]_F5.1_[T9A]_[A10C]_T5.1 (ssRNA)
RNA: UUUGACAACUGAUCGUUCUUUCUUGUAUAGUACUUCUUUCUCGAUCAGUUGUCUUU
- Kd: 3.94 nM

B18: Ic_S4_P5E.1_K5.1_C5.1_H5.1_A5.1_[T5G]_[T6C]_[A7C]_F5.1_[T8C]_T5.1 (ssRNA)
RNA: UUUGACAACUGAUCGUUCUUUCUUGUAGCCCUAUUCUUUCUCGAUCAGUUGUCUUU
- Kd: 19.6 nM

B19: Ic_S4_P5E.1_K5.1_C5.1_H5.1_A5.1_[T5G]_[T6C]_[A7T]_F5.1_[T8C]_[T9C]_[A10C]_T5.1 (ssRNA)
RNA: UUUGACAACUGAUCGUUCUUUCUUGUAGCUCCCUUCUUUCUCGAUCAGUUGUCUUU
- Kd: 658 nM

B20: Ic_S4_P5E.1_K5.1_C5.1_H5.1_A5.1_[T5G]_[A7C]_F5.1_[T8A]_[T9C]_[A10T]_T5.1 (ssRNA)
RNA: UUUGACAACUGAUCGUUCUUUCUUGUAGUCACUUUCUUUCUCGAUCAGUUGUCUUU
- Kd: 1040 nM

B21: Ic_S4_P5E.1_K5.1_C5.1_H5.1_A5.1_[T6C]_[A7G]_F5.1_[T8G]_T5.1 (ssRNA)
RNA: UUUGACAACUGAUCGUUCUUUCUUGUAUCGGUAUUCUUUCUCGAUCAGUUGUCUUU
- Kd: 45.9 nM

B22: Ic_S4_P5E.1_K5.1_C5.1_H5.1_A5.1_[T5G]_[A7G]_F5.1_[T8C]_[T9C]_[A10T]_T5.1 (ssRNA)
RNA: UUUGACAACUGAUCGUUCUUUCUUGUAGUGCCUUUCUUUCUCGAUCAGUUGUCUUU
- Kd: 956 nM

B23: Ib_S1_P4E.1_K4.1_C4.1_H4.1_A4.1_[T5C]_F4.1_[A9C]_T4.1 (ssRNA)
RNA: UCUCUUUGUACAUUCUCUCUU
- Kd: 5.41 nM

B24: Ic_S1_P4E.1_K4.1_C4.1_H4.1_A4.1_[T5A]_F4.1_[A9G]_T4.1 (ssRNA)
RNA: UCUCUUUGUAAAUUGUCUCUU
- Kd: 10.9 nM

B25: Ic_S1_P4E.1_K4.1_C4.1_H4.1_A4.1_[T5C]_F4.1_[A9T]_T4.1 (ssRNA)
RNA: UCUCUUUGUACAUUUUCUCUU
- Kd: 5.25 nM
